Assay results taken from the supplement of paper PMC9732359.
± gives the uncertainty stated by the source.

Experiment: protein stability index of a GFP-peptide fusion (yeast GPS) (PSI 1-4); higher = more stable; sorted into four equal gates, so the index is relative within each strain
In short: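 Plasmids in a pooled yeast library fused tiled 17-residue yeast protein peptides downstream of GFP and also expressed Cherry. Mid-log cultures grown without leucine were sorted into four equal gates by GFP/Cherry fluorescence ratio. Each gate's plasmids were PCR-amplified and Illumina-sequenced, and reads were matched to strains by barcodes. The protein stability index is derived by multiplying each gate's read frequency by its gate number and summing the results.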

Sequence	protein stability index (doa10∆)	protein stability index (pdr5∆)	protein stability index (san1∆)	protein stability index (ubr1∆)
PEQVYSLLLTNVIITGS [ARP7]	1.36 ± 0.06	1.39 ± 0.047	1.17 ± 0.11	1.23 ± 0.046
NKTSNNNNVTAVPAATP [SWI1]	2.84 ± 0.044	3.06 ± 0.046	2.81 ± 0.032	3.07 ± 0.042
VSFNGFKLPKKFPPPTP [BRR2]	2.57 ± 0.07	2.9 ± 0.067	2.8 ± 0.06	2.93 ± 0.052
IEGMEQRIIKELSIRFP [ARP7]	3.04 ± 0.096	3.21 ± 0.12	2.84 ± 0.086	2.26 ± 0.099
AATIGANFIFSPASGIV [RPT4]	2.56 ± 0.061	2.66 ± 0.055	1.84 ± 0.1	2.18 ± 0.083
NIDQEGSKQADRMAKYL [PGD1]	3.4 ± 0.094	3.35 ± 0.13	2.97 ± 0.087	3.17 ± 0.15
SQEREFSLLVKAEIPPE [SIN4]	3.04 ± 0.1	2.98 ± 0.072	2.96 ± 0.073	2.83 ± 0.061
IDSINGPDTKGQLEDFD [SMC3]	3.47 ± 0.14	3.29 ± 0.11	3.18 ± 0.24	3.31 ± 0.1
QLILSDVDPEFYLKYVD [RET1]	3.25 ± 0.23	2.95 ± 0.15	2.72 ± 0.12	2.92 ± 0.12
TGEWFSSYEEFLERFDF [ITC1]	2.99 ± 0.098	1.99 ± 0.06	2.09 ± 0.12	2 ± 0.15
TLYSVKSKEDMKQLKFF [SNU114]	3.28 ± 0.17	3.33 ± 0.13	3.17 ± 0.083	3.1 ± 0.087
EIVRDILHTKESSNEAK [SIR4]	2.75 ± 0.067	2.96 ± 0.074	2.82 ± 0.06	2.75 ± 0.059
ATLYIPKALRFDRLVAG [FAS2]	2.88 ± 0.22	1.23 ± 0.068		1.44 ± 0.09
RKEWFDIKAPSTFENRN [RPS1A]	1.95 ± 0.093	2.46 ± 0.07	1.77 ± 0.098	3.02 ± 0.06
LTFNSKNIQSKDSYINA [FAS2]	2.84 ± 0.16	2.72 ± 0.076	2.73 ± 0.17	2.68 ± 0.12
ANNQEYDLNFKLRETLV [SMC1]			3.63 ± 0.18	3.41 ± 0.21
TQIANAGASPMVNTQQP [PRE4]	2.94 ± 0.11	3.07 ± 0.09	2.82 ± 0.075	2.82 ± 0.18
SRSRSSIRSISPAGKYK [ESC2]	2.84 ± 0.14	2.96 ± 0.099	3.17 ± 0.064	3.14 ± 0.085
KPDVTYADVGGLDMQKQ [RPT3]		3.69 ± 0.14	3.47 ± 0.24	3.35 ± 0.21
TFKDGVILGADSRTTTG [PRE3]		2.8 ± 0.12	2.69 ± 0.19	2.59 ± 0.14
NKKGRGHVKPVRCVNCS [RPS26A]	3.18 ± 0.065	2.98 ± 0.077	2.98 ± 0.085	3.02 ± 0.076
SSENNQIILAYIKYNIL [SRP68]	3.06 ± 0.065	2.82 ± 0.074	2.92 ± 0.076	2.88 ± 0.062
KLINIKKFDISNDNLDL [MED1]	2.83 ± 0.2	3.01 ± 0.15	2.48 ± 0.15	2.83 ± 0.096
TATASLGVIHKGNLLEG [RPN2]	2.96 ± 0.16	1.84 ± 0.082	1.98 ± 0.16	2.72 ± 0.081
KQEIREAVELPLVQADL [RPT3]	3.2 ± 0.13	2.81 ± 0.22	3.43 ± 0.12	2.96 ± 0.17
CHSKLRGQQVENPTDNF [GRR1]	2.86 ± 0.22			
LQNLQRIIRKKIFIAVV [RRI2]	1.21 ± 0.078	1.19 ± 0.073		1.16 ± 0.091
DIDVTIVSKEYEKNFEA [ESC2]	3.27 ± 0.15	3.06 ± 0.14	3.24 ± 0.088	3.42 ± 0.16

Sequence	protein stability index (doa10∆)	protein stability index (pdr5∆)	protein stability index (san1∆)	protein stability index (ubr1∆)
TKDLLSKSPSEWQDIIH [CSE2]	3.1 ± 0.082	2.99 ± 0.077	3.07 ± 0.075	3.17 ± 0.049
KKEEEEQLSEEDAKLKT [RPN1]	3.19 ± 0.16	3.24 ± 0.07	3.34 ± 0.11	3.06 ± 0.14
LSGIIQDIYYLAQTLKL [RRI2]	1.54 ± 0.081	1.66 ± 0.14	1.14 ± 0.092	1.04 ± 0.093
ELVRLLIIDEIHLLHDD [BRR2]	2.17 ± 0.11	1.63 ± 0.075	1.5 ± 0.1	1.97 ± 0.063
MGRVIRNQRKGAGSIFT [RPL2A]	2.95 ± 0.2	3.28 ± 0.12	2.77 ± 0.25	2.75 ± 0.15
TKQASSFSFLNRADGTG [YLR335W/NUP2]				1.45 ± 0.2
TQTESKKEENETISNVA [SNF2]	3.07 ± 0.056	3.1 ± 0.048	2.98 ± 0.045	3.19 ± 0.038
ISKTTLTLDPRYIWRSL [RPN3]	2.75 ± 0.1	2.61 ± 0.082	2.5 ± 0.085	2.6 ± 0.15
QLPSKFTCSCNSLTVDG [RPN14]	2.2 ± 0.06	2.39 ± 0.062	2.17 ± 0.052	2.17 ± 0.036
HTQDIIGGMRVDENGDP [RET1]	3.2 ± 0.084	3.32 ± 0.073	3.17 ± 0.055	3.37 ± 0.054
LCDNFNHFSLSYKDSGL [COR1]	2.27 ± 0.066	2.7 ± 0.069	2.73 ± 0.067	2.5 ± 0.066
EFNFTNLQAKPLVGKPK [YAR002W/NUP60]	2.1 ± 0.06	2.35 ± 0.055	2.27 ± 0.077	2.25 ± 0.042
ALPHVEINQVSLALVIR [RGR1]	1.91 ± 0.12	3 ± 0.22	2.24 ± 0.13	2.71 ± 0.086
LDRIPMHSYFIFKDLVT [COB]	1.92 ± 0.11	1.91 ± 0.12	1.88 ± 0.12	1.67 ± 0.069
TFRIFHNHDTGCDENDS [YDL088C/ASM4]	2.92 ± 0.1	3.09 ± 0.14	3.27 ± 0.1	3.11 ± 0.1
NKRWKVDIGGKQHAVLM [RRP4]	2.87 ± 0.064	3.25 ± 0.067	3.18 ± 0.05	3.2 ± 0.037
DVILDYQTKKFYDYIKE [REC8]	2.4 ± 0.06	2.58 ± 0.052	2.55 ± 0.071	2.92 ± 0.051
QGEEEELIALNLSEARL [RPB4]	3.22 ± 0.12	3.53 ± 0.14	3.22 ± 0.078	3.26 ± 0.095
MSGSLSRGNGGKKVLNK [POP1]	1.34 ± 0.15	2.48 ± 0.11	1.32 ± 0.22	2.97 ± 0.11
VEKLGKKMEARGQSIWV [RPN9]				1.51 ± 0.14
EKWLLNQIPVTEHSKVT [SRB6]	1.9 ± 0.051	2.6 ± 0.068	1.99 ± 0.12	2.37 ± 0.057
FSQTVADNNDLQESINH [ECM29]	3.03 ± 0.055	3.08 ± 0.049	3.02 ± 0.047	3.1 ± 0.048
KNQLRDWIRFVSTKTNE [RPL22A]	2.3 ± 0.046	2.22 ± 0.047	2.17 ± 0.068	2.61 ± 0.04
AAGAGAAAGAAMIDAGA [FAS2]	2.84 ± 0.15	2.98 ± 0.12		2.99 ± 0.12
GKETIARVTGGMKVKAD [RPS14B]	1.42 ± 0.1	1.24 ± 0.096	1.85 ± 0.11	2.6 ± 0.11
IDRGLFRSLFFRSYMDQ [RPB2]	3 ± 0.27	2.88 ± 0.27	1.86 ± 0.25	2.94 ± 0.084
IALGEDIGKEMSLRHFG [RPN1]	3.2 ± 0.088	3.07 ± 0.11	2.55 ± 0.2	3.34 ± 0.14
